Values of other authors as cited in paper PMC10349181.

Biological target: Amyloid beta (Homo sapiens) (UniProt P05067)
Sequence (P05067 672-711): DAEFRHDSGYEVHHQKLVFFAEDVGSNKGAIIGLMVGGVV

Sequence of VEGF-A (P15692 whole entry): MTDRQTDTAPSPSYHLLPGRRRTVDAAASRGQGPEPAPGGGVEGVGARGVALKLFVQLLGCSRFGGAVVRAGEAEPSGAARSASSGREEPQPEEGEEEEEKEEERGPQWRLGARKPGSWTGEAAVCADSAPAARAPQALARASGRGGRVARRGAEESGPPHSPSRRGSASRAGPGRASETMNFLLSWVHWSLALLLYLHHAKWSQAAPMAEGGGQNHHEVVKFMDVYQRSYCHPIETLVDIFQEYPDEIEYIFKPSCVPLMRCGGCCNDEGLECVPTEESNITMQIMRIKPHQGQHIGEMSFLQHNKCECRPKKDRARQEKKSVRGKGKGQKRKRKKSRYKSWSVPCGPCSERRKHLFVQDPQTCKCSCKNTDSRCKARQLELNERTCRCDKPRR

VEGF-A (from UniProt P15692)
Kd: 50 pM
